Test results as given in US20050112564A1 (published 2005).
No end group written: not given here. *: point of attachment. FITC = O=C1OC2(c3ccc(O)cc3Oc3cc(O)ccc32)c2ccc(NC(=S)*)cc21

Biological target: T1, avidin (UniProt P02701 25-152)
T1 construct: also called avidin of a bar code 01
Assay: FITC-peptide incubated with protein-coated bar-coded carriers; fluorescence read in flow tube
Method: Carriers of 15 mm in length having a bar code 01 or 02 were prepared by using polymethylmethacrylate fibers as a raw material and introducing carboxyl groups on the surface thereof in the same manner as in Example 1. As in Example 1, 50 carriers having a bar code 01 were dispersed in 10 ml HEPES buffer, 100 μmol hydroxysuccinimide was added thereto, followed by the addition of 100 μmol WSC to succinimidate carboxyl groups, and after washing the carriers with the same buffer, 10 ml of a buffer containing 1 μmol/ml avidin was immediately added thereto to immobilize avidin on the carriers. The carriers were subjected to blocking in 1% BSA solution, and washed with distilled water to prepare carriers to which avidin is bound and which have a bar code 01.
Similarly, a FITC-labeled polypeptide having the […] shown in SEQ ID NO: 7 which consists of 15 amino acids without containing avidin-binding peptide sequence and having FITC at the amino-terminus was synthesized and dissolved in PBS containing 0.1% BSA at a concentration of 2 nmol/ml to prepare a test sample solution.
An apparatus shown in FIGS. 1 and 2 was prepared, and the bar code and fluorescence were detected while passing the solutions prepared in (3) above through a hollow tube in the detection device. As the bar code reader, a hand laser scanner SL-114 (product of Nichiei Intec) was used. […]

T1 sequence (P02701 25-152 limits assumed): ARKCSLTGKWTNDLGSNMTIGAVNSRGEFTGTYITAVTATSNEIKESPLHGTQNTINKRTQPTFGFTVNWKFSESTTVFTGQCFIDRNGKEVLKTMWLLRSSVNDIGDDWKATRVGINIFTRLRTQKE

binding result: no binding
Binder: {FITC}-ISFENTWLWTSPFSS [FITC-labeled polypeptide of SEQ ID NO: 7 (15 amino acids without avidin-binding peptide sequence)]
